Assay [1] addresses T1, Mouse TREM2, on cells (mouse, UniProt Q99NH8 19-227).
T1 chain: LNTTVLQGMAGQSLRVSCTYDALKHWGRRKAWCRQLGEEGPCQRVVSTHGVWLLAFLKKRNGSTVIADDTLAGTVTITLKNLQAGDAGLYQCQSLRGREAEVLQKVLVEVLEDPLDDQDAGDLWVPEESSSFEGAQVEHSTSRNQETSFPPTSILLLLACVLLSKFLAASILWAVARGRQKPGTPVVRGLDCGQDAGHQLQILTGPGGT
The experiment in a line: FACS cell binding; FIG. 1D.

Assay [2] addresses T2, His-tagged TREM2 ECD (ecto domain residues 19-172 of human TREM2, C-terminal 6X-His tag) (UniProt Q9NZC2 19-172).
T2 chain: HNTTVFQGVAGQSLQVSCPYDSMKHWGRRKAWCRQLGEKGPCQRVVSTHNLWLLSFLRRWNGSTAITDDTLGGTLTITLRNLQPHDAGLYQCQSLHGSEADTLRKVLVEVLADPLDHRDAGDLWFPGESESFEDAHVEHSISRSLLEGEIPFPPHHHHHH
Description: SPR (Biacore). Background: In SPR one partner is held on a chip, and binding of the other changes the refractive index at the surface.

B1: RS9.F6 (antibody, V domains shown)
VH: QVQLQQPGAELVKPGASVKLSCKASGYTFTSYWMHWVKQSPGRGLEWIGRSDPTTGGTNYNEKFKTKATLTVDKPSSTAYMQLSSLTSDDSAVYYCVRTSGTGDYWGQGTSLTVSS
VL: DVVMTQTPLSLPVSLGDQASISCRSSQSLVHNNGNTFLHWYLQKPGQSPKLLIYKVSNRFSGVPDRFSGSGSGTDFTLKISRVEAEDLGVYFCSQTTHVPPTFGGGTKLEIK
Take B1: the response in assay [1] was half-maximal at 6.81 nM (EC50).

B2: RS9.F6/3C.35.21.17 (bispecific antibody)
heavy 1: QVQLQQPGAELVKPGASVKLSCKASGYTFTSYWMHWVKQSPGRGLEWIGRSDPTTGGTNYNEKFKTKATLTVDKPSSTAYMQLSSLTSDDSAVYYCVRTSGTGDYWGQGTSLTVSSASTKGPSVFPLAPSSKSTSGGTAALGCLVKDYFPEPVTVSWNSGALTSGVHTFPAVLQSSGLYSLSSVVTVPSSSLGTQTYICNVNHKPSNTKVDKKVEPKSCDKTHTCPPCPAPEAAGGPSVFLFPPKPKDTLMISRTPEVTCVVVDVSHEDPEVKFNWYVDGVEVHNAKTKPREEQYNSTYRVVSVLTVLHQDWLNGKEYKCKVSNKALGAPIEKTISKAKGQPREPQVYTLPPSRDELTKNQVSLWCLVKGFYPSDIAVLWESYGTEWASYKTTPPVLDSDGSFFLYSKLTVTKEEWQQGFVFSCSVMHEALHNHYTQKSLSLSPGK
heavy 2: QVQLQQPGAELVKPGASVKLSCKASGYTFTSYWMHWVKQSPGRGLEWIGRSDPTTGGTNYNEKFKTKATLTVDKPSSTAYMQLSSLTSDDSAVYYCVRTSGTGDYWGQGTSLTVSSASTKGPSVFPLAPSSKSTSGGTAALGCLVKDYFPEPVTVSWNSGALTSGVHTFPAVLQSSGLYSLSSVVTVPSSSLGTQTYICNVNHKPSNTKVDKKVEPKSCDKTHTCPPCPAPEAAGGPSVFLFPPKPKDTLMISRTPEVTCVVVDVSHEDPEVKFNWYVDGVEVHNAKTKPREEQYNSTYRVVSVLTVLHQDWLNGKEYKCKVSNKALGAPIEKTISKAKGQPREPQVYTLPPSRDELTKNQVSLSCAVKGFYPSDIAVEWESNGQPENNYKTTPPVLDSDGSFFLVSKLTVDKSRWQQGNVFSCSVMHEALHNHYTQKSLSLSPGK
light: DVVMTQTPLSLPVSLGDQASISCRSSQSLVHNNGNTFLHWYLQKPGQSPKLLIYKVSNRFSGVPDRFSGSGSGTDFTLKISRVEAEDLGVYFCSQTTHVPPTFGGGTKLEIK
The molecule B2 came in with a Kd in assay [2] of 2.27 nM.

One may read the EC50 as the concentration at which the effect is half-maximal. A word on the Kd: it is the free concentration of one partner at which half of the binding sites on the other are occupied at equilibrium, for simple one-to-one binding.
